Changes are numbered by the printed parent chain.
B1: 53A11 (antibody, mouse IgG2a, V domains shown)
VH: EVQLQQSGPELLKPGASVKISCKASGYTFTDYTMHWVKQSHGKSLEWIGGINPYYGGTTYNEKFKDKATLTVDKSSSTAYMELRSLTSEDSAVYYCAKGDYYGGSYNYWGQGTTLTVSS
VL: DIVLTQSLATLSVTPGDSVSLSCRASQDISNSLHWYQQKSHESPRLLIKYASQSISGIPSRFSGSGSGTDFTLSINSVETEDFGMYFCQQSNSWPYTFGGGTKLEIK
notes: mouse IgG2a from hybridoma; also called 53A11 (mouse mAb)
B2: 13B3 (antibody, mouse IgG2a, V domains shown)
VH: EVQLQQSGPELLKPGASVKISCKASGYTFTEYTMHWVKQSHGKSLEWIGSINPYYGGTSYNEKFKDKATLTVDKSSNTAYMEFRSLTSEDCAVYYCARYGNYVGYFDYWGQGTTLTVSS
VL: ENVLTQSPAIMSASLGEKVTMSCRASSSVHYMYWYQQKSDASPKLWIYYTSNLAPGVPDRFSGSGSGNSYSLTISSMEGEDAATYYCQQFTSSPYTFGGGTKLEIK
notes: mouse IgG2a from hybridoma; also called 13B3 (mouse mAb)
B3: 23H8 (antibody, mouse IgG2a, V domains shown)
VH: EVQLQQSGPELLKPGASVKISCKASGYTFTDNTIHWVKQSHGKSLEWIGHINPYYGGTNNNEKFKDKATLTVDKSSSTAYMELRSLTSEDSAIYYCARKGIYYSSPFDYWGQGTTLTVSS
VL: DIQMTQTTSSLSASLGDRVTISCRASQDINNYLNWYQQKPDGTVKLLISYTSKLHSGVPSRFSGSGSGTDYSLTISNLEREDFATYFCQQGNTLPFTFGSGTNLEIK
notes: mouse IgG2a from hybridoma; also called 23H8 (mouse mAb)
B4: h16F6-S2 (antibody, V domains shown)
VH: QVQLVQSGAEVKKPGASVKVSCKASGYTFTTYWIAWVRQAPGQGLEWMGEILPGSAKTKYNKKFKGRVTMTRDTSTSTVYMELSSLRSEDTAVYYCAVYDYGADYWGQGTTVTVSS
VL: DIQMTQSPSSLSASVGDRVTITCKASQDVYTAVAWYQQKPGKSPKLLIYSASYRFTGVPSRFSGSGAGTDFTLTISSLQPEDFATYYCQQHYSIPRTFGGGTKVEIK
B5: h16F6-S5 (antibody, V domains shown)
VH: B4 VH
VL: B4 VL with T20S, S63T, L73F
B6: h16F6-S3 (antibody, V domains shown)
VH: B4 VH
VL: B4 VL with S63T
B7: h16F6-S4 (antibody, V domains shown)
VH: B4 VH
VL: B4 VL with S63T, L73F

Each binder was assayed against T1, human [1-305]-mouse chimeric EL (human; mouse, UniProt Q9WVG5 306-500) (assay: cell-based or functional assay).
T1 sequence: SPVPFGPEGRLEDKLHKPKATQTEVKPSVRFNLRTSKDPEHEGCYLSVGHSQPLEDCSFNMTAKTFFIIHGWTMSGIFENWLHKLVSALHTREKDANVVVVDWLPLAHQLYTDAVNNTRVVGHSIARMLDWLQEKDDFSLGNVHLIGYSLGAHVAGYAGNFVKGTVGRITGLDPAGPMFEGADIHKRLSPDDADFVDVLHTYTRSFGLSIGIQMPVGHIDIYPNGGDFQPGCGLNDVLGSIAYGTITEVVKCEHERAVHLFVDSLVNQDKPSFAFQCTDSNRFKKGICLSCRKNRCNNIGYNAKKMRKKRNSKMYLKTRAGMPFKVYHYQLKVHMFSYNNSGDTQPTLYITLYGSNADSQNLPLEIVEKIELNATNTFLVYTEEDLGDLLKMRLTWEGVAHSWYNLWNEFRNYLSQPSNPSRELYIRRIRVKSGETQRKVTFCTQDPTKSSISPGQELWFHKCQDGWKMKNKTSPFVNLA

Binder	Neutralizing activity IC50 [nM]
B1	2.6
B2	4.1
B3	1.7

The binders below were run against human-mouse chimeric EL (construct not specified) (assay: cell-based or functional assay).

Binder	Neutralizing activity IC50 [nM]
B1	2.3
B2	4.1
B3	1.7

The binders below were run against baboon EL (baboon) (assay: cell-based or functional assay).

Binder	Neutralizing activity IC50 [nM]
B1	2.4
B2	2.6
B3	3.2

Each binder was assayed against rabbit EL (rabbit) (assay: cell-based or functional assay).

Binder	Neutralizing activity IC50 [nM]
B2	13
B3	67

Each binder was assayed against cynomolgus monkey EL (cynomolgus monkey) (assay: cell-based or functional assay).

Binder	Neutralizing activity IC50 [nM]
B1	1.9
B2	1.7
B3	2.7

Each binder was assayed against T2, human [1-157]-mouse chimeric EL (human; mouse, UniProt Q9WVG5 158-500) (assay: ELISA: antibody captured on anti-mouse IgG-Fc plate, EL heparin extract added, detection with biotin anti-C2-tag antibody and HRP-streptavidin, A450).
T2 construct: Heparin extract, detected by an anti-C2-tag antibody
T2 sequence: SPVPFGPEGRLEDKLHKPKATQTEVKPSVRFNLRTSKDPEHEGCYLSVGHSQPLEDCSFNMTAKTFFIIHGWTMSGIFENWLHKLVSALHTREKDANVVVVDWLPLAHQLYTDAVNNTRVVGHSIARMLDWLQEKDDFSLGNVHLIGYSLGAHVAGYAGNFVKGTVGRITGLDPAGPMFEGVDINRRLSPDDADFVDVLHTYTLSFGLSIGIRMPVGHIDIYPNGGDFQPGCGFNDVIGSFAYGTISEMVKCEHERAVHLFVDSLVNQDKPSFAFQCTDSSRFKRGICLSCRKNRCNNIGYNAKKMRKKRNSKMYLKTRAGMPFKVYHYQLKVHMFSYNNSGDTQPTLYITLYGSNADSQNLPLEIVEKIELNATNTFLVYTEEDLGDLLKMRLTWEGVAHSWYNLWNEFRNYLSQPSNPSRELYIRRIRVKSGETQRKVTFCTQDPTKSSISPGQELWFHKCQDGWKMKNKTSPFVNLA
Description: (§1) Assay buffer containing 15 μl of anti-EL antibody was added to anti-mouse IgG-Fc antibody-immobilized microtiter plate, and incubated for 2 hr. […] After washing the wells three times with 90 μL of washing buffer, 15 μl of assay buffer containing biotin-labeled anti-C2-tag antibody and HRP-labeled Streptavidin were added to the wells and incubated at room temperature for 1 hr. After washing the wells three times with 90 μL of washing buffer, 15 μL of TMB+—Substrate—Chromogen (DAKO) was added and incubated at room temperature for 30 min and then 15 μL of 0.05 M H2SO₄ was added and absorbance at 450 nm was measured (FIG. 3A to 3K).

Binder	EC50 (read off the curve) [ng/mL]
B1	~6
B2	~4
B3	~4

These binders were tested against T3, baboon EL (baboon) in the same assay as above.
T3 construct: Heparin extract
Description: as §1

Binder	EC50 (read off the curve) [ng/mL]
B1	~20
B2	~20
B3	~20

What follows are binders tested against T4, mouse EL (mouse, UniProt Q9WVG5 21-500) in the same assay as above.
T4 construct: Heparin extract
T4 sequence (looked up): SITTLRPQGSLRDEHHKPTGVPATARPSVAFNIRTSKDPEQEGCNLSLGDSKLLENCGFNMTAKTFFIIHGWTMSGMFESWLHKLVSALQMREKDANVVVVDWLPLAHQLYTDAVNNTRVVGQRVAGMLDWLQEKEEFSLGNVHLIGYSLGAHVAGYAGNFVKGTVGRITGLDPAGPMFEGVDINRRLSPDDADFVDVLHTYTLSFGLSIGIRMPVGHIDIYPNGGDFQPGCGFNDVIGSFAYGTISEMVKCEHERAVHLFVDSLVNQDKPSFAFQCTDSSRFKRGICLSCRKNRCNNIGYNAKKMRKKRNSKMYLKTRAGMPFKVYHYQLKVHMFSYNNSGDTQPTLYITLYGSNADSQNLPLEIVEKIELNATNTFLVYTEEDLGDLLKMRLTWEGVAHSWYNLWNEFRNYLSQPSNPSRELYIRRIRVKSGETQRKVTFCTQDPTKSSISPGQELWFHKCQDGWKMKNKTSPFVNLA
Description: as §1

Binder	binding result
B1	no binding (tested: about 330 ng/mL)
B2	no binding (tested: about 330 ng/mL)
B3	no binding (tested: about 330 ng/mL)

Each binder was assayed against T5, cynomolgus monkey EL (cynomolgus monkey) in the same assay as above.
T5 construct: Heparin extract; also called cynomolgus EL; Cynomolgus EL
Description: as §1

Binder	EC50 (read off the curve) [ng/mL]
B1	~10
B2	~10
B3	~8

Each binder was assayed against T3, baboon EL (assay: Biacore; EL captured by anti-C2-tag Ab; bivalent fit).
Description: (§2) The binding affinities of anti-EL antibodies were measured using Biacore. […] Then, anti-EL antibodies were added and the binding affinities were calculated by bivalent fitting of BIAevaluation software.

Binder	Kd [nM]	koff [s⁻¹]	kon [M⁻¹ s⁻¹]
B1	1.6	0.00026	170000
B2	5.1	0.00031	61000
B3	2.9	0.00044	150000

What follows are binders tested against T1, human [1-305]-mouse chimeric EL in the same assay as above.
Description: as §2

Binder	Kd [nM]	koff [s⁻¹]	kon [M⁻¹ s⁻¹]
B1	0.63	0.00011	180000
B2	0.91	0.00014	150000
B3	0.87	0.00011	120000

The binders below were run against T5, cynomolgus monkey EL in the same assay as above.
Description: as §2

Binder	Kd [nM]	koff [s⁻¹]	kon [M⁻¹ s⁻¹]
B1	4.2	0.00038	91000
B2	8.7	0.00041	47000
B3	6.1	0.00075	120000

These binders were tested against T3, baboon EL (assay: cell-based or functional assay).

Binder	Neutralizing activity IC50 [nM]
B4	3.3
B5	2
B6	3.1
B7	2.6

The binders below were run against T4, mouse EL (assay: cell-based or functional assay).

Binder	Neutralizing activity IC50 [nM]
B4	3
B5	2.1
B6	3.3
B7	2

The binders below were run against T5, cynomolgus monkey EL (assay: cell-based or functional assay).

Binder	Neutralizing activity IC50 [nM]
B1	2.7
B2	3.1
B3	1.4

From US20200071424A1 (SHIONOGI, published 2020)
